The supplement of paper PMC10724198
± gives the standard deviation of the averaged measurements.

System: Saccharomyces cerevisiae
Experiment: protein stability index of tFT-peptide fusion (C-terminal peptide) (PSI (0-1 scale)); higher = more stable (slower turnover)
Conditions: genetic background: wild type; temperature: 30 C
Method: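 Multiplexed protein stability (MPS) profiling in S. cerevisiae. Random 12-aa peptides (tFT-X12 library) are fused to the C-terminus of a sfGFP-mCherry tandem fluorescent timer, after mCherry and a GGGS linker. Cells are FACS-sorted into 8 mCherry/sfGFP bins and deep-sequenced. The protein stability index (PSI) is the read-weighted bin average, scaled from 0 (unstable) to 1 (stable). Only peptides with >10 reads are reported; cells were grown at 30 °C in SC-His with glucose.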
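Further: PSI is a weighted mean of sequencing reads over stability bins, variants kept only with over 10 reads, mCherry proximal and sfGFP distal, peptide attached via GGGS linker.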

Sequence | protein stability index
GSVLRCFFRKGS | 0.6923 ± 0.0059
GSVYFDLLCVRP | 0.729 ± 0.048
GSWIGGSVIGGQ | 0.763 ± 0.073
GTASGGPKVSLF | 0.656 ± 0.088
GTETKIRNKHVE | 0.645 ± 0.059
GTGMMGFFWIVA | 0.571 ± 0.069
GTKGEGGGKGGV | 0.693 ± 0.038
GTLDTDAGTINH | 0.683 ± 0.025
GTPNLTEEPPHQ | 0.761 ± 0.034
GTPPRSGLPLCT | 0.711 ± 0.0099
GTRAETQWSVGM | 0.682 ± 0.013
GTRPSPPSRLVS | 0.677 ± 0.031
GTVHQQGGPIDG | 0.676 ± 0.033
GVAGRRRRAGAW | 0.7294 ± 0.002
GVAVLAGWEVLG | 0.653 ± 0.021
GVCGGGGGWGVA | 0.6826 ± 0.0019
GVCSRVFLGRVE | 0.6836 ± 0.0065
GVDKQSGTRNIK | 0.704 ± 0.0068
GVEVAGCPGARG | 0.655 ± 0.042
GVFCHILAFLWC | 0.512 ± 0.019
GVFFVRAGSVYC | 0.579 ± 0.019
GVFHAWAWCCGF | 0.78 ± 0.099
GVGAALDVWRRR | 0.696 ± 0.033
GVGGAGIGVGMG | 0.705 ± 0.032
GVGGCVMGVGRV | 0.64763 ± 0.00048
GVGGFLGVVGVG | 0.5857 ± 0.0019

Sequence | protein stability index
GVGGGISGGRWG | 0.666 ± 0.088
GVGGGSRGVCLG | 0.638 ± 0.094
GVGGVCEMVAIK | 0.506 ± 0.028
GVGLGGFGVWGV | 0.73 ± 0.074
GVGLGRVWVKLG | 0.708 ± 0.06
GVGLWGVGFRGG | 0.7 ± 0.034
GVGSGNMEEEGQ | 0.679 ± 0.034
GVGSTGAKTVRG | 0.693 ± 0.018
GVGWGSRGVCLG | 0.659 ± 0.095
GVLHPPARPPPL | 0.654 ± 0.024
GVLVFGLGLVRD | 0.623 ± 0.027
GVLVGGERRWVL | 0.699 ± 0.053
GVQDEERYSRSE | 0.6563 ± 0.0063
GVRATRMGGGPL | 0.706 ± 0.015
GVRVRAGYDVRA | 0.6619 ± 0.0033
GVSLLCLFLGSP | 0.6212 ± 0.0041
GVTDRGIDCGIK | 0.658 ± 0.023
GVTNRQMAWCFS | 0.606 ± 0.071
GVVGGGEDRWSV | 0.738 ± 0.032
GVVGGWRGAGWR | 0.736 ± 0.064
GVVGWTAGLRGG | 0.734 ± 0.045
GVVLVARVTGSS | 0.662 ± 0.075
GVVNSGVFGINS | 0.693 ± 0.054
GVVRGEAGVIGR | 0.817 ± 0.087
GVVWMSCGGWGG | 0.764 ± 0.028
GVWAVGGGGGGR | 0.665 ± 0.069

Sequence | protein stability index
GVWCDIVLPGVM | 0.704 ± 0.052
GVWFWRLKGEGN | 0.713 ± 0.045
GVWGGVGGWGVA | 0.697 ± 0.053
GVWTRTWSLQWI | 0.561 ± 0.015
GWGCCWSVAWTF | 0.614 ± 0.026
GWGGSTLRGVRR | 0.719 ± 0.03
GWRACGRGLVGK | 0.712 ± 0.011
GWRGGCRSGVPE | 0.665 ± 0.064
GWRVSQVLGGDR | 0.741 ± 0.042
GWRVVWAVCGHF | 0.597 ± 0.092
GWSLDYGSTGDR | 0.812 ± 0.018
GWSSSCTATRSA | 0.743 ± 0.045
GWSWGGVRTGSC | 0.841 ± 0.092
GWVNKQVVTEAH | 0.728 ± 0.085
GWVPDGCVGSIG | 0.653 ± 0.069
GWVREAVGFRGG | 0.687 ± 0.028
GWVVGGGRLGVV | 0.723 ± 0.095
GWVVGRGRLGVV | 0.655 ± 0.028
GYDEREKPVLLR | 0.753 ± 0.042
GYEDTLKKILEI | 0.673 ± 0.099
GYGNQLILAISN | 0.576 ± 0.021
GYGRLVSSQSFR | 0.888 ± 0.16
GYKLSIQGYNRK | 0.675 ± 0.014
GYLFLGNMTRHN | 0.737 ± 0.016
GYLLGCGCGWSG | 0.621 ± 0.034
GYRKREMRGELQ | 0.678 ± 0.038

Sequence | protein stability index
GYSYTEFPPEAV | 0.708 ± 0.08
HAPFPPLLVSSL | 0.625 ± 0.022
HATFLPGLLTIS | 0.566 ± 0.026
HDPPPPPPLPRP | 0.626 ± 0.024
HDSAGVCFHYWL | 0.644 ± 0.011
HEGPGTTEFLGL | 0.717 ± 0.059
HFAMCSTTFVIT | 0.618 ± 0.029
HFLVGPLSPLLS | 0.662 ± 0.019
HGFSRFAACNGV | 0.666 ± 0.0071
HGLDPRRGPSGA | 0.68426 ± 0.00044
HGQGWRPTYLSI | 0.796 ± 0.1
HGRGVEYGVCDN | 0.6776 ± 0.0066
HIAKQSSRRRRR | 0.68 ± 0.029
HICFPALKPGGA | 0.6401 ± 0.0039
HIWQEADGMDTE | 0.679 ± 0.022
HKAPLLQLTADM | 0.662 ± 0.028
HKGKELTNNAML | 0.678 ± 0.039
HKHDAVIIGREC | 0.7024 ± 0.0042
HKKATRPPTGGN | 0.604 ± 0.052
HLAHVCYEVPTY | 0.568 ± 0.04
HLFSLGSCLSDP | 0.731 ± 0.12
HLGVLDSFLAEG | 0.629 ± 0.028
HLIVPESVVHDL | 0.747 ± 0.18
HLLGYSLRREFL | 0.67 ± 0.054
HLPPSRPSFSAP | 0.747 ± 0.015
HLPSHPSLPPAP | 0.707 ± 0.029

Sequence | protein stability index
HLSHVLLGITFV | 0.603 ± 0.026
HLSPAPPPPSAP | 0.706 ± 0.11
HLTCVVGRDLGI | 0.606 ± 0.015
HMHTSKTFSNGP | 0.738 ± 0.093
HNSTKTQSLRGT | 0.719 ± 0.016
HPPHPPPLPGSP | 0.802 ± 0.076
HPPHPPPSPCPP | 0.733 ± 0.034
HPPPARSPPSLP | 0.741 ± 0.041
HPPPFRSIPEPQ | 0.678 ± 0.019
HPPVFFSPCGIL | 0.634 ± 0.033
HPSARLPENRTP | 0.677 ± 0.038
HPSPLHLPSPPP | 0.675 ± 0.0076
HPTFARIPPIPP | 0.525 ± 0.0088
HPTHTPPSTHRD | 0.7316 ± 0.0053
HPTLPPHPPPHP | 0.768 ± 0.036
HPTRHPPTPPCY | 0.704 ± 0.018
HQCVNLNTIKWV | 0.634 ± 0.021
HQVSLVLGGYLL | 0.702 ± 0.0099
HRCQRGLIARPR | 0.665 ± 0.016
HRGAVRGGSEIW | 0.729 ± 0.033
HRTKRPKTKRPP | 0.628 ± 0.036
HRYRWPGLNSRL | 0.837 ± 0.12
HSFNITSESQKI | 0.653 ± 0.0066
HSLPPLRPYPSP | 0.7553 ± 0.00076
HSLRLPPSVHFP | 0.6797 ± 0.004
HSLRPPPPPAPT | 0.7146 ± 0.0045

Sequence | protein stability index
HSNGADTFSEGE | 0.648 ± 0.033
HSPILQPSLPHP | 0.71 ± 0.022
HSPPRPPFHPRF | 0.70091 ± 0.0004
HSRPAAPCRSPL | 0.679 ± 0.013
HSRRCDGLPGWV | 0.671 ± 0.03
HSTGPRPKLGCQ | 0.827 ± 0.019
HSYMFIRNTIRI | 0.6281 ± 0.0031
HSYSPRSLLVDP | 0.727 ± 0.039
HTGKAATRKVIK | 0.634 ± 0.024
HTKNCTRAVSDR | 0.673 ± 0.085
HTPPLPPPPDPT | 0.723 ± 0.061
HTPPPPRHPYKH | 0.741 ± 0.055
HVGEVESGGMGG | 0.707 ± 0.03
HVLFPLHPNRIP | 0.6609 ± 0.0016
HVMLPFTGIGKF | 0.672 ± 0.06
HVNGQWEANRRT | 0.697 ± 0.048
HVPQPNTVCPHL | 0.754 ± 0.033
HVTRGMTHLTLF | 0.635 ± 0.036
HVTSTRGARRPS | 0.715 ± 0.019
HVVSSGFLVGLG | 0.671 ± 0.039
HWSMRVNRTEGG | 0.663 ± 0.055
HWYFARTSTVSC | 0.5505 ± 0.0015
HYLYSLLVLPPL | 0.658 ± 0.046
IAATTVVRPAFC | 0.66 ± 0.0083
IACPPSVIFSPH | 0.713 ± 0.058
